B1: ZNF263 (parent)
chain: KPYKCTLCGENFSHRSNLIRHQRI

Variants of: B1
Assay: protein stability index of a GFP-peptide fusion (GPS, HEK-293T) (PSI 1-6); higher = more stable
Conditions: c terminus: a fixed tail appended
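Note: lentivirally expressed fusions sorted by FACS into six bins by GFP to DsRed ratio, PSI derived from sequencing read proportions per bin multiplied by bin number.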

Variant	protein stability index
KPYKCTLCGENFSHRSMLIRHQRI [N17M]	2.87
KPYKCTLCGENFSHRSYLIRHQRI [N17Y]	3.12
KPYKCTLCGENFSHRSFLIRHQRI [N17F]	2.08
KPYKCTLCGENFSHRSDLIRHQRI [N17D]	3.88
KPYKCTLCGENFSHRSALIRHQRI [N17A]	3.59
KDYKCTLCGENFSHRSNLIRHQRI [P2D]	2.3
KFYKCTLCGENFSHRSNLIRHQRI [P2F]	2.12
KCYKCTLCGENFSHRSNLIRHQRI [P2C]	2.02
KIYKCTLCGENFSHRSNLIRHQRI [P2I]	2.33
KAYKCTLCGENFSHRSNLIRHQRI [P2A]	2.7
KKYKCTLCGENFSHRSNLIRHQRI [P2K]	2.92
KGYKCTLCGENFSHRSNLIRHQRI [P2G]	2.77
KMYKCTLCGENFSHRSNLIRHQRI [P2M]	2.05
KPVKCTLCGENFSHRSNLIRHQRI [Y3V]	2.28
KPIKCTLCGENFSHRSNLIRHQRI [Y3I]	1.55
KPEKCTLCGENFSHRSNLIRHQRI [Y3E]	1.78
KPDKCTLCGENFSHRSNLIRHQRI [Y3D]	1.84
KPLKCTLCGENFSHRSNLIRHQRI [Y3L]	2.64
KPMKCTLCGENFSHRSNLIRHQRI [Y3M]	1.73
KPPKCTLCGENFSHRSNLIRHQRI [Y3P]	1.85
KPWKCTLCGENFSHRSNLIRHQRI [Y3W]	2.42
KPSKCTLCGENFSHRSNLIRHQRI [Y3S]	2.11
KPHKCTLCGENFSHRSNLIRHQRI [Y3H]	1.34
KPQKCTLCGENFSHRSNLIRHQRI [Y3Q]	2.14

Variant	protein stability index
KPYKCTLCGENFSHRSNLIRKQRI [H21K]	2.04
KPYKCTLCGENFSHRSNLIRNQRI [H21N]	3.21
KPYKCTLCGENFSHRSNLIRAQRI [H21A]	2.13
KPYKCTLCGENFSHRSNLIRGQRI [H21G]	1.83
KPYKCTLCGENFSHRSNLIREQRI [H21E]	2.58
KPYKCTLCGENFSHRSNLIRQQRI [H21Q]	1.14
KPYKCTLCGENYSHRSNLIRHQRI [F12Y]	1.44
KPYKCTLCGENKSHRSNLIRHQRI [F12K]	1.58
KPYKCTLCGENPSHRSNLIRHQRI [F12P]	1.57
KPYKCTLCGENESHRSNLIRHQRI [F12E]	1.93
KPYICTLCGENFSHRSNLIRHQRI [K4I]	2.87
KPYCCTLCGENFSHRSNLIRHQRI [K4C]	1.7
KPYSCTLCGENFSHRSNLIRHQRI [K4S]	1.9
KPYHCTLCGENFSHRSNLIRHQRI [K4H]	2.95
KPYRCTLCGENFSHRSNLIRHQRI [K4R]	2.54
KPYECTLCGENFSHRSNLIRHQRI [K4E]	2.35
KPYFCTLCGENFSHRSNLIRHQRI [K4F]	2.01
KPYVCTLCGENFSHRSNLIRHQRI [K4V]	2.87
KPYLCTLCGENFSHRSNLIRHQRI [K4L]	1.84
KPYNCTLCGENFSHRSNLIRHQRI [K4N]	1.94
KPYWCTLCGENFSHRSNLIRHQRI [K4W]	2.35
KPYQCTLCGENFSHRSNLIRHQRI [K4Q]	2.48
KPYKCMLCGENFSHRSNLIRHQRI [T6M]	2.08
KPYKCNLCGENFSHRSNLIRHQRI [T6N]	2.6

Variant	protein stability index
KPYKCVLCGENFSHRSNLIRHQRI [T6V]	2.07
KPYKCKLCGENFSHRSNLIRHQRI [T6K]	2.69
KPYKCWLCGENFSHRSNLIRHQRI [T6W]	2.53
KPYKCALCGENFSHRSNLIRHQRI [T6A]	2.43
KPYKCRLCGENFSHRSNLIRHQRI [T6R]	2.96
KPYKCSLCGENFSHRSNLIRHQRI [T6S]	3.17
KPYKCFLCGENFSHRSNLIRHQRI [T6F]	2.61
KPYKCQLCGENFSHRSNLIRHQRI [T6Q]	2.21
KPYKCTLCGENFSHRQNLIRHQRI [S16Q]	2.81
KPYKCTLCGENFSHRINLIRHQRI [S16I]	2.41
KPYKCTLCGENFSHRANLIRHQRI [S16A]	2.04
KPYKCTLCGENFSHRFNLIRHQRI [S16F]	2.02
KPYKCTLCGENFSHRLNLIRHQRI [S16L]	2.88
KPYKCTLCGENFSHRVNLIRHQRI [S16V]	1.87
KPYKCTLCGENFSHRRNLIRHQRI [S16R]	3.92
KPYKCTLCGENFSHRYNLIRHQRI [S16Y]	2.91
KPYKCTLCGENFSHRGNLIRHQRI [S16G]	1.94
KPYKCTLCGENFSHRTNLIRHQRI [S16T]	1.65
KPYKCTLCGENFSSRSNLIRHQRI [H14S]	3.56
KPYKCTLCGENFSVRSNLIRHQRI [H14V]	2.43
KPYKCTLCGENFSPRSNLIRHQRI [H14P]	1.85
KPYKCTLCGENFSKRSNLIRHQRI [H14K]	2.81
KPYKCTLCGENFSTRSNLIRHQRI [H14T]	2.75
KPYKCTLCGENFSGRSNLIRHQRI [H14G]	1.97

Variant	protein stability index
KPYKCTLCGENFSYRSNLIRHQRI [H14Y]	3.16
KPYKCTLCGENFSLRSNLIRHQRI [H14L]	2.73
KPYKCTLCGENFSWRSNLIRHQRI [H14W]	1.43
KPYKCTLCGENFSIRSNLIRHQRI [H14I]	2.07
QPYKCTLCGENFSHRSNLIRHQRI [K1Q]	2.38
SPYKCTLCGENFSHRSNLIRHQRI [K1S]	2.81
CPYKCTLCGENFSHRSNLIRHQRI [K1C]	2.67
FPYKCTLCGENFSHRSNLIRHQRI [K1F]	2.56
APYKCTLCGENFSHRSNLIRHQRI [K1A]	2.19
YPYKCTLCGENFSHRSNLIRHQRI [K1Y]	2.69
KPYKCTLCGENFSHRSNLIRHQRM [I24M]	2.74
KPYKCTLCGENFSHRSNLIRHQRH [I24H]	2.45
KPYKCTLCGENFSHRSNLIRHQRR [I24R]	3.16
KPYKCTLCGENFSHRSNLIRHQRN [I24N]	3.11
KPYKCTLCGENFSHRSNLIRHQRF [I24F]	1.93
KPYKCTLCGENFSHRSNLIRHQRA [I24A]	2.81
KPYKCTLCGENFSHRSNCIRHQRI [L18C]	3.22
KPYKCTLCGENFSHRSNDIRHQRI [L18D]	1.74
KPYKCTLCGENFSHRSNEIRHQRI [L18E]	1.81
KPYKCTLCGENFSHRSNHIRHQRI [L18H]	2.93
KPYKCTLCGENFSHRSNPIRHQRI [L18P]	1.88
KPYKCTLCGENFSHRSNMIRHQRI [L18M]	1.93
KPYKCTLCGENFSHRSNFIRHQRI [L18F]	2.56
KPYKCTLCGENFCHRSNLIRHQRI [S13C]	2.4

Variant	protein stability index
KPYKCTLCGENFIHRSNLIRHQRI [S13I]	2.67
KPYKCTLCGENFRHRSNLIRHQRI [S13R]	3.45
KPYKCTLCGENFGHRSNLIRHQRI [S13G]	2.59
KPYKCTLCGENFKHRSNLIRHQRI [S13K]	2.38
KPYKCTLCGENFTHRSNLIRHQRI [S13T]	2.13
KPYKCTLCGENFSHRSNLYRHQRI [I19Y]	2.3
KPYKCTLCGENFSHRSNLWRHQRI [I19W]	1.5
KPYKCTLCGENFSHRSNLKRHQRI [I19K]	2.65
KPYKCTLCGENFSHRSNLTRHQRI [I19T]	2.5
KPYKCTLCGENFSHRSNLHRHQRI [I19H]	2.33
KPYKCTLCGENFSHRSNLNRHQRI [I19N]	1.77
KPYKCTLCGENFSHRSNLSRHQRI [I19S]	1.88
KPYKCTLCGENFSHRSNLERHQRI [I19E]	2.89
KPYKCTLCGENFSHRSNLDRHQRI [I19D]	2.74
KPYKCTLCGERFSHRSNLIRHQRI [N11R]	3.03
KPYKCTLCGEIFSHRSNLIRHQRI [N11I]	3.18
KPYKCTLCGEEFSHRSNLIRHQRI [N11E]	3.23
KPYKCTLCGELFSHRSNLIRHQRI [N11L]	2.69
KPYKCTLCGEYFSHRSNLIRHQRI [N11Y]	2.8
KPYKCTLCGEAFSHRSNLIRHQRI [N11A]	2.72
KPYKCTLCGEQFSHRSNLIRHQRI [N11Q]	2.62
KPYKCTLCGETFSHRSNLIRHQRI [N11T]	3.59
KPYKCTLCGEFFSHRSNLIRHQRI [N11F]	2.61
KPYKCTLCGEPFSHRSNLIRHQRI [N11P]	1.8

Variant	protein stability index
KPYKCTLCGEKFSHRSNLIRHQRI [N11K]	2.98
KPYKCTLCGEWFSHRSNLIRHQRI [N11W]	2.25
KPYKCTLCGRNFSHRSNLIRHQRI [E10R]	2.97
KPYKCTLCGINFSHRSNLIRHQRI [E10I]	2.35
KPYKCTLCGLNFSHRSNLIRHQRI [E10L]	1.88
KPYKCTLCGGNFSHRSNLIRHQRI [E10G]	3.09
KPYKCTLCGFNFSHRSNLIRHQRI [E10F]	2.36
KPYKCTLCGWNFSHRSNLIRHQRI [E10W]	2.35
KPYKCTLCGDNFSHRSNLIRHQRI [E10D]	2.25
KPYKCTLCGENFSHRSNLIGHQRI [R20G]	2.37
KPYKCTLCGENFSHRSNLIPHQRI [R20P]	1.7
KPYKCTLCGENFSHRSNLINHQRI [R20N]	2.38
KPYKCTLCGENFSHRSNLIYHQRI [R20Y]	1.68
KPYKCTLCGENFSHRSNLITHQRI [R20T]	2.33
KPYKCTLCGENFSHRSNLIKHQRI [R20K]	2.67
KPYKCTLCGENFSHNSNLIRHQRI [R15N]	2.1
KPYKCTLCGENFSHYSNLIRHQRI [R15Y]	2.45
KPYKCTLCGENFSHFSNLIRHQRI [R15F]	2.96
KPYKCTLCGENFSHHSNLIRHQRI [R15H]	2.15
KPYKCTLCGENFSHMSNLIRHQRI [R15M]	2.85
KPYKCTLCGENFSHPSNLIRHQRI [R15P]	2.52
KPYKCTLCGENFSHASNLIRHQRI [R15A]	2.87
KPYKRTLCGENFSHRSNLIRHQRI [C5R]	1.86
KPYKMTLCGENFSHRSNLIRHQRI [C5M]	1.67

Variant	protein stability index
KPYKETLCGENFSHRSNLIRHQRI [C5E]	2.19
KPYKHTLCGENFSHRSNLIRHQRI [C5H]	2.34
KPYKWTLCGENFSHRSNLIRHQRI [C5W]	1.61
KPYKSTLCGENFSHRSNLIRHQRI [C5S]	2.43
KPYKDTLCGENFSHRSNLIRHQRI [C5D]	2.69
KPYKYTLCGENFSHRSNLIRHQRI [C5Y]	1.96
KPYKLTLCGENFSHRSNLIRHQRI [C5L]	2.47
KPYKCTYCGENFSHRSNLIRHQRI [L7Y]	3.25
KPYKCTPCGENFSHRSNLIRHQRI [L7P]	1.69
KPYKCTWCGENFSHRSNLIRHQRI [L7W]	2.69
KPYKCTSCGENFSHRSNLIRHQRI [L7S]	2.68
KPYKCTQCGENFSHRSNLIRHQRI [L7Q]	3.02
KPYKCTICGENFSHRSNLIRHQRI [L7I]	3.06
KPYKCTMCGENFSHRSNLIRHQRI [L7M]	3.12
KPYKCTDCGENFSHRSNLIRHQRI [L7D]	3.02
KPYKCTHCGENFSHRSNLIRHQRI [L7H]	3.88
KPYKCTECGENFSHRSNLIRHQRI [L7E]	3.63
KPYKCTLCGENFSHRSNLIRHQKI [R23K]	3.08
KPYKCTLCGENFSHRSNLIRHQNI [R23N]	2.63
KPYKCTLCGENFSHRSNLIRHQCI [R23C]	4.48
KPYKCTLCGENFSHRSNLIRHQVI [R23V]	2.01
KPYKCTLCGENFSHRSNLIRHQTI [R23T]	1.88
KPYKCTLCGENFSHRSNLIRHQMI [R23M]	2.88
KPYKCTLCGENFSHRSNLIRHQPI [R23P]	1.33

Variant	protein stability index
KPYKCTLCGENFSHRSNLIRHRRI [Q22R]	3.17
KPYKCTLCGENFSHRSNLIRHARI [Q22A]	2.49
KPYKCTLCGENFSHRSNLIRHDRI [Q22D]	2.01
KPYKCTLCGENFSHRSNLIRHWRI [Q22W]	2.65
KPYKCTLCGENFSHRSNLIRHMRI [Q22M]	3.43
KPYKCTLCGENFSHRSNLIRHHRI [Q22H]	3.09
KPYKCTLCGENFSHRSNLIRHYRI [Q22Y]	2.91
KPYKCTLCGENFSHRSNLIRHPRI [Q22P]	1.39
KPYKCTLCVENFSHRSNLIRHQRI [G9V]	2.14
KPYKCTLCCENFSHRSNLIRHQRI [G9C]	2.16
KPYKCTLCSENFSHRSNLIRHQRI [G9S]	2.38
KPYKCTLCYENFSHRSNLIRHQRI [G9Y]	2.61
KPYKCTLCEENFSHRSNLIRHQRI [G9E]	2.29
KPYKCTLCTENFSHRSNLIRHQRI [G9T]	1.39
KPYKCTLCMENFSHRSNLIRHQRI [G9M]	2.38
KPYKCTLCDENFSHRSNLIRHQRI [G9D]	2.01
KPYKCTLCRENFSHRSNLIRHQRI [G9R]	2.5
KPYKCTLAGENFSHRSNLIRHQRI [C8A]	2.34
KPYKCTLNGENFSHRSNLIRHQRI [C8N]	2.89
KPYKCTLWGENFSHRSNLIRHQRI [C8W]	1.88

From the supplement of paper PMC10567573
